Biological target: human IL-15 complexed with the IL-15 Receptor-alpha (human, UniProt P40933 49-162)
Test: cell-based or functional assay

human IL-15 complexed with the IL-15 Receptor-alpha, sequence (P40933 49-162 limits assumed, chain 1 of 2): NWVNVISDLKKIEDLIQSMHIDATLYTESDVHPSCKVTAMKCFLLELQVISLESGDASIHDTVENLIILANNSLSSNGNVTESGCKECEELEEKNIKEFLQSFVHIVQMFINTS
human IL-15 complexed with the IL-15 Receptor-alpha, sequence (chain, as listed by the source limits assumed, chain 2 of 2): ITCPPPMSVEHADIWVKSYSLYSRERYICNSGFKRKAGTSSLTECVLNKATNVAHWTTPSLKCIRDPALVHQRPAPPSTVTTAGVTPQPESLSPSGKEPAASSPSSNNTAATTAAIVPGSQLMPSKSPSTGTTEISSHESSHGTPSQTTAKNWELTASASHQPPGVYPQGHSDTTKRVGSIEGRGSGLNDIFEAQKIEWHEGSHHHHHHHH

| Binder | IC 50 (NK-92) in pM |
| --- | --- |
| Antibody 63 (antibody, V domains shown) VH: QVQLQESGPGLVKPSGTLSLTCAVSGGSISSSNWWSWVRQPPGKGLEWIGEIYHYGYTNYNPSLKSRVTISVDKSKNQFSLKLSSVTAADTAVYYCAREGIGWPSFDYWGQGTLVTVSS VL: SSELTQDPAASVALGQTVRITCQGDTLRNYYASWYQQKPGQAPILVIYGKNNRPSGIPDRFSGSSSGNTASLTITGAQAEDEADYYCNSRDSSGKNLVFGGGTKLTVL | 4.21 pM |
| Antibody 66 (antibody, V domains shown) VH: QVQLQESGPGLVKPSGTLSLTCAVSGGSISSSNWWSWVRQPPGKGLEWIGEIYHYGYTNYNPSLKSRVTISVDKSKNQFSLKLSSVTAADTAVYYCAREGIGWPSFDYWGQGTLVTVSS VL: SSELTQDPAASVALGQTVRITCQGDTLRNYYASWYQQKPGQAPILVIYGKNNRPSGIPDRFSGSSSGNTASLTITGAQAEDEADYYCNSRDLSGKNLVFGGGTKLTVLG | 6.04 pM |
| Antibody 64 (antibody, V domains shown) VH: QVQLQESGPGLVKPSGTLSLTCAVSGGSISSSNWWSWVRQPPGKGLEWIGEIYHYGYTNYNPSLKSRVTISVDKSKNQFSLKLSSVTAADTAVYYCAREGIGWPSFDYWGQGTLVTVSS VL: SSELTQDPAASVALGQTVRITCQGDTLRSYYASWYQQKPGQAPILVIYGKNNRPSGIPDRFSGSSSGNTASLTITGAQAEDEADYYCNSRDSSGKNLVFGGGTKLTVLG | 13.6 pM |
| Antibody 65 (antibody, V domains shown) VH: QVQLQESGPGLVKPSGTLSLTCAVSGGSISSSNWWSWVRQPPGKGLEWIGEIYHYGYTNYNPSLKSRVTISVDKSKNQFSLKLSSVTAADTAVYYCAREGIGWPSFDYWGQGTLVTVSS VL: SSELTQDPAASVALGQTVRITCQGDTLRNYYASWYQQKPGQAPILVIYGKNNRPSGIPDRFSGSSSGNTASLTITGAQAEDEADYYCNSRESSGKNLVFGGGTKLTVL | 42.5 pM |
| Antibody 67 (antibody, V domains shown) VH: QVQLQESGPGLVKPSGTLSLTCAVSGGSISSSNWWSWVRQPPGKGLEWIGEIYHYGYTNYNPSLKSRVTISVDKSKNQFSLKLSSVTAADTAVYYCAREGIGWPSFDYWGQGTLVTVSS VL: SSELTQDPAASVALGQTVRITCQGDTLRNYYASWYQQKPGQAPILVIYGKNNRPSGIPDRFSGSSSGNTASLTITGAQAEDEADYYCNSRDESGKNLVFGGGTKLTVL | 7.69 pM |

More lines, now with the values ahead:

| IC 50 (NK-92) in pM | Binder |
| --- | --- |
| 26.4 pM | Antibody 71 (antibody, V domains shown) VH: QVQLQESGPGLVKPSGTLSLTCAVSGGSISSSNWWSWVRQPPGKGLEWIGEIYHYGYTNYNPSLKSRVTISVDKSKNQFSLKLSSVTAADTAVYYCAREGIGWPSFDYWGQGTLVTVSS VL: SSELTQDPAASVALGQTVRITCQGDTLRSYYASWYQQKPGQAPILVIYGKNNRPSGIPDRFSGSSSGNTASLTITGAQAEDEADYYCNSRDESGKNLVFGGGTKLTVL |
| 162 pM | Antibody 69 (antibody, V domains shown) VH: QVQLQESGPGLVKPSGTLSLTCAVSGGSISSSNWWSWVRQPPGKGLEWIGEIYHYGYTNYNPSLKSRVTISVDKSKNQFSLKLSSVTAADTAVYYCAREGIGWPSFDYWGQGTLVTVSS VL: SSELTQDPAASVALGQTVRITCQGDTLRSYYASWYQQKPGQAPILVIYGKNNRPSGIPDRFSGSSSGNTASLTITGAQAEDEADYYCNSRESSGKNLVFGGGTKLTVL |
| 5.34 pM | Antibody 68 (antibody, V domains shown) VH: QVQLQESGPGLVKPSGTLSLTCAVSGGSISSSNWWSWVRQPPGKGLEWIGEIYHYGYTNYNPSLKSRVTISVDKSKNQFSLKLSSVTAADTAVYYCAREGIGWPSFDYWGQGTLVTVSS VL: SSELTQDPAASVALGQTVRITCQGDTLRNYYASWYQQKPGQAPILVIYGKNNRPSGIPDRFSGSSSGNTASLTITGAQAEDEADYYCNSRDFSGKNLVFGGGTKLTVLG |

Reference: patent US20200270339A1 (CEPHALON, published 2020)
